In the RNAGym collection of RNA variant scans (doi:10.7554/elife.80360):

B1: HDV Ribozyme (parent)
chain: GGCCGGCAUGGUCCCAGCCUCCUCGCUGGCGCCGGCUGGGCAACAUUCCGAGGGGACCGUCCCCUCGGUAAUGGCGAAUGGGACCCA

Variants of: B1
Assay: self-cleavage, relative activity (ratio to wild type); higher = more cleavage; co-transcriptional

| Variant | self-cleavage |
| --- | --- |
| GGCCGGCAUGGUCCCAGCCUCCUCGCUGGCGCCGGCUGGGCCACAUCCCGAGGGGACCGUCCCCUCGGUAAUGGCGAAUGGGACCCA [A42C U47C] | 0.0791 |
| GGCCGGCAUGGUCCCAGCCUCCUCGCUGGCGCCGGCUGGGCCACAUGCCGAGGGGACCGUCCCCUCGGUAAUGGCGAAUGGGACCCA [A42C U47G] | 0.0594 |
| GGCCGGCAUGGUCCCAGCCUCCUCGCUGGCGCCGGCUGGGCCACAUUCCGAGGGGACCGUCCUCUCGGUAAUGGCGAAUGGGACCCA [A42C C63U] | 0.19 |
| GGCCGGCAUGGUCCCAGCCUCCUCGCUGGCGCCGGCUGGGCCACAUUCCGAGGGGACCGUCCCCUCGGUAAUGGCGAAUCGGACCCA [A42C G80C] | 0.101 |
| GGCCGGCAUGGUCCCAGCCUCCUCGCUGGCGCCGGCUGGGCCACAUUCCGAGGGGACCGUCCCCUCGGUAAUCGCGAAUGGGACCCA [A42C G73C] | 0.119 |
| GGCCGGCAUGGUCCCAGCCUCCUCGCUGGCGCCGGCUGGGCCACAUUCCGAGGGGACCGUCCCCUCGGUAAUGGCGAAUGGGACGCA [A42C C85G] | 0.469 |
| GGCCGGCAUGGUCCCAGCCUCCUCGCUGGCGCCGGCUGGGCCACAUUCCGAGGGGACCGUCCCCUCUGUAAUGGCGAAUGGGACCCA [A42C G67U] | 0.261 |
| GGCCGGCAUGGUCCCAGCCUCCUCGCUGGCGCCGGCUGGGCCACAUUCCGAGGGGACCGUCCCCUAGGUAAUGGCGAAUGGGACCCA [A42C C66A] | 0.332 |
| GGCCGGCAUGGUCCCAGCCUCCUCGCUGGCGCCGGCUGGGCCACAUUCCGAGGGGACCGUCCCCUCGGUAAUGGCGAAUGGGCCCCA [A42C A83C] | 0.101 |
| GGCCGGCAUGGUCCCAGCCUCCUCGCUGGCGCCGGCUGGGCCACAUUCCGAGGGGACCGUCCCCUCGGUAAUGCCGAAUGGGACCCA [A42C G74C] | 0.166 |
| GGCCGGCAUGGUCCCAGCCUCCUCGCUGGCGCCGGCUGGGCCACAUUCCGAGGGUACCGUCCCCUCGGUAAUGGCGAAUGGGACCCA [A42C G55U] | 0.409 |
| GGCCGGCAUGGUCCCAGCCUCCUCGCUGGCGCCGGCUGGGCCACAUUCCGAGGGGACCGUCCCCCCGGUAAUGGCGAAUGGGACCCA [A42C U65C] | 0.268 |
| GGCCGGCAUGGUCCCAGCCUCCUCGCUGGCGCCGGCUGGGCCACAUUCCGAGGGGGCCGUCCCCUCGGUAAUGGCGAAUGGGACCCA [A42C A56G] | 0.415 |
| GGCCGGCAUGGUCCCAGCCUCCUCGCUGGCGCCGGCUGGGCCACAUUCCGAGGGGACGGUCCCCUCGGUAAUGGCGAAUGGGACCCA [A42C C58G] | 0.26 |
| GGCCGGCAUGGUCCCAGCCUCCUCGCUGGCGCCGGCUGGGCCACAUUCCGAGGGGACCGUCCCCUCGGUAAUGGCGAAUGGGACCCU [A42C A87U] | 0.283 |
| GGCCGGCAUGGUCCCAGCCUCCUCGCUGGCGCCGGCUGGGCCACAUUCCGAGGGGACCGUCCCCUCGGUAAUGGCGAAUGGGACCAA [A42C C86A] | 0.312 |

| Variant | self-cleavage |
| --- | --- |
| GGCCGGCAUGGUCCCAGCCUCCUCGCUGGCGCCGGCUGGGCCACAUUCCGAGGGGACCGUCCCCUCGGUAAUGGCGAAUGGGACCGA [A42C C86G] | 0.353 |
| GGCCGGCAUGGUCCCAGCCUCCUCGCUGGCGCCGGCUGGGCCACAUUCCGAGGGGACCGUCCCCUCGGUAAUGGCGAAUGGGACCUA [A42C C86U] | 0.178 |
| GGCCGGCAUGGUCCCAGCCUCCUCGCUGGCGCCGGCUGGGCCACAUUCCGAGGGGACCGUCCCCUCGGUAAUGGCGAAAGGGACCCA [A42C U79A] | 0.213 |
| GGCCGGCAUGGUCCCAGCCUCCUCGCUGGCGCCGGCUGGGCCACAUUCCGAGGGGACCGUCCCCUCGGUGAUGGCGAAUGGGACCCA [A42C A70G] | 0.312 |
| GGCCGGCAUGGUCCCAGCCUCCUCGCUGGCGCCGGCUGGGCCACAUUCCGAGGGGACCGUCCCCUCGAUAAUGGCGAAUGGGACCCA [A42C G68A] | 0.253 |
| GGCCGGCAUGGUCCCAGCCUCCUCGCUGGCGCCGGCUGGGCCACAUUCCGAGGGGACCGUCCCCUCGUUAAUGGCGAAUGGGACCCA [A42C G68U] | 0.128 |
| GGCCGGCAUGGUCCCAGCCUCCUCGCUGGCGCCGGCUGGGCCACAUUCCGAGGGGACCGUCCCCUCGGUAGUGGCGAAUGGGACCCA [A42C A71G] | 0.361 |
| GGCCGGCAUGGUCCCAGCCUCCUCGCUGGCGCCGGCUGGGCCACAUUCGGAGGGGACCGUCCCCUCGGUAAUGGCGAAUGGGACCCA [A42C C49G] | 0.178 |
| GGCCGGCAUGGUCCCAGCCUCCUCGCUGGCGCCGGCUGGGCCACAUUCCGAGGGGACCGUCCCCUCGGUAAUGGCGUAUGGGACCCA [A42C A77U] | 0.369 |
| GGCCGGCAUGGUCCCAGCCUCCUCGCUGGCGCCGGCUGGGCCACAUUCCGAGGGGACCGUCCCCUCGGUAAUGGCGCAUGGGACCCA [A42C A77C] | 0.161 |
| GGCCGGCAUGGUCCCAGCCUCCUCGCUGGCGCCGGCUGGGCCACAUUCCGAUGGGACCGUCCCCUCGGUAAUGGCGAAUGGGACCCA [A42C G52U] | 0.282 |
| GGCCGGCAUGGUCCCAGCCUCCUCGCUGGCGCCGGCUGGGCCACAUUCCGAGGGGACCGUCCCCUCGGUAAUGGAGAAUGGGACCCA [A42C C75A] | 0.116 |
| GGCCGGCAUGGUCCCAGCCUCCUCGCUGGCGCCGGCUGGGCCACAUUCCGAGGGGACCGUCCCCUCGGUAAAGGCGAAUGGGACCCA [A42C U72A] | 0.266 |
| GGCCGGCAUGGUCCCAGCCUCCUCGCUGGCGCCGGCUGGGCCACCUUCCGAGGGGACCGUCCCCUCGGUAAUGGCGAAUGGGACCCA [A42C A45C] | 0.0462 |
| GGCCGGCAUGGUCCCAGCCUCCUCGCUGGCGCCGGCUGGGCCACAUUCCGGGGGGACCGUCCCCUCGGUAAUGGCGAAUGGGACCCA [A42C A51G] | 0.26 |
| GGCCGGCAUGGUCCCAGCCUCCUCGCUGGCGCCGGCUGGGCCACAUUCCGUGGGGACCGUCCCCUCGGUAAUGGCGAAUGGGACCCA [A42C A51U] | 0.369 |
